Laboratory results published in PMC6591006, “Broad and Potent Neutralizing Antibodies Recognize the Silent Face of the HIV Envelope” (Immunity, 2019).

Assays:
[1] = target: T1, YU2 gp120 monomer (wild type) (HIV-1 group M subtype B isolate YU-2, UniProt P35961); test: ELISA; YU2 gp120/gp140 proteins coated on the plate at 2 μg/ml; IgG in a 1:3 dilution series from 4 or 10 μg/ml, 1 h at room temperature or 37°C, in 1% BSA in PBS; detected with anti-human IgG; settings: both partners purified
T1 construct: also called monomeric YU2 gp120; YU2 gp120 WT; source: 293-6E, transiently transfected, purified (Ni-NTA)

[2] = target: T2, YU2 gp140 foldon trimer (wild type) (HIV-1 group M subtype B isolate YU-2, UniProt P35961, stabilised); test: as above; settings: both partners purified
T2 construct: also called uncleaved YU2 gp140 foldon trimer; YU2 gp140 WT; source: 293-6E, transiently transfected, purified (Ni-NTA)

Row | Binder | binding result [1] | binding result [2]
1 | Monoclonal anti-HIV-1 Env SF12 (IgG) (antibody, V domains shown) VH: QVQLQESGPGLVKPSETLSVTCRVSGGSLDLYYWSWIRQPPGKGLQWIGFVYFDGSYGDYDPSLRSRVTISADMSKNQISLRLKSVTPADTAVYYCARLGPGGIFDRWTGHYGDKWLDPWGQGTLVTVSS VL: QIDLTQSPRTLSLSAGERATLLCRASQSVSNVALAWYQHKPGQAPRLLLHEASTRATGIPDRFIGSGSGRDFTLTITSLEPEDFAVYYCQLSGRRLGQGTKVEIK | binds | binds
2 | Monoclonal anti-HIV-1 Env SF5 (IgG) (antibody, V domains shown) VH: QVQLQESGPGLVKPSETLSVTCRVSGGSLDRYYWSWIRQPPGEGLQWIGHVYFDGSYGDYDPSLRSRVTITADMSKYQIILRLRSVTPADTAVYYCARLGPGGIFDRWTGHYGDKWLDPWGQGTLVTVSS VL: QIVLTQSPRTLSLSAGERATLLCRASQSVSNVALAWYQHKPGQAPRLLLHEASIRAAGIPDRFVGSGSGRDFTLTITSLHPEDFAVYYCQLSGRRLGPGTKVEIK | binds | binds
